In paper PMC4754655 (2016):
Numbering of substitutions follows the chain as printed.

B1: GEBT403 mature Fab (Fab, V domains shown)
VH: EVQLVQSGAEVKKPGSSVKVSCKASGYTFTDYYMHWVRQAPGQGLEWMGEINPKTGGTNYAQKFQGRVTMTRDTSTSTAYMELSSLRSEDTAIYSCARGGQRLIPLRRFYFYYWGQGVLVTVSS
VL: QSVLTQPPSVSGAPGQKVTISCTGSSSNIGGYDVHWYQQLPGMAPKLLIYDNNERPSGISDRFSGSKSGTSASLAITGLQTEDEADYYCQSYDSSMNAWVFGGGTRLTVL
B2: GEBT403 igL-reverted Fab (Fab, V domains shown)
VH: B1 VH with E1Q, I93V, S95Y
VL: B1 VL with G69A
B3: GEBT404, mature IgG (antibody, V domains shown)
VH: EVQLVESGGGLAKPGGSLRLSCAASGFTFSNYWMYWVRQAPGKGLEWISAINSAGSRTYYPDSVKGRFTISRENAKNTLYLQMDSLRAEDTAVYYCAKGRIAIFGLVITYFDYWGQGVLVTVSS
VL: DIQMTQSPSSLSASVGDRVTITCRASQGITNDLAWYQQKPGETPKLLIYDASSLQSGIPSRFSGSGSGTDFTLTISSLQPEDFATYYCQHYYSTPPTFGGGTKVEIK
B4: GEBT404, inferred germline (igL) reverted IgG (antibody, V domains shown)
VH: B3 VH with Y35H, R57S, P61A, S85G
VL: B3 VL with R24Q, D50E, P80S
B5: GEBT412, mature IgG (antibody, V domains shown)
VH: QVQLVESGGGLVQPGGSLRLACAASGFIFSNHGMHWVRQAPGKGLEWVAVIWYDGSEKYYADSVKDRFTISRDNSKNMLYLQMNNLKLVDTAVYYCARRGCTGSGCYLYYYGLDSWGQGVVVTVSS
VL: DIQMTQSPSSLSASVGDTVTITCRASQGISSHLNWFQQKPGKAPKLLIYAATTLQSGVPSRFSGSGSGTDFTLTISSLQPEDFATYYCLQHNFYPYSFGQGTKVEIK
B6: GEBT412, inferred germline (igL) reverted IgG (antibody, V domains shown)
VH: B5 VH with A21S, I28T, N31S, H32Y, E57K, V89E
VL: B5 VL with H32Y, T52S, T53S, Q55E, D70E
B7: GEBT391, mature IgG (antibody, V domains shown)
VH: B5 VH with A21S, I28T, N31S, H32Y, Y53F, A61V, V89D, G112A
VL: B5 VL with H32Y
B8: GEBT391, inferred germline (igL) reverted IgG (antibody, V domains shown)
VH: B5 VH with Q1E, A21S, I28T, N31S, H32Y, E57K, V89E, G112A
VL: B5 VL with H32Y, T52S, T53S, Q55E, D70E
B9: GEBT414, mature IgG (antibody, V domains shown)
VH: EVQLVQSGAEVKRPGESLRISCKTSGYSFTGSWISWVRQMPGKGLDWMGNIYPGDSDTRYNPSFQGHVTISADKSISTTYLQWSSLKASDTATYYCAKGGGITIFGLLHYPLDSWGQGVVVTVSS
VL: DIQMTQSPSSLSASVGDTVTITCRASQGINNWLAWYQQKPGKAPKLLIYKASSLQSGVPSRFSGSGSGTDFTLTISSLQSEDFATYYCQQYNSGPLTFGGGTKVEIK
B10: GEBT414, inferred germline (igL) reverted IgG (antibody, V domains shown)
VH: B9 VH with D46E, N50S
VL: DIQMTQSPASLSASVGDRVTITCQASQGISSWLAWYQQKPGKAPKLLLYKAPGLQSGVPSMFSGSGSGTEFTLTISSLQPEDFATYYCQQYNSGPLTFGGGTKVEIK
B11: GEBT403, inferred germline (igL) reverted IgG (antibody, V domains shown)
VH: B1 VH with E1Q, I93V, S95Y
VL: B1 VL with G69A
B12: GEBT403, mature IgG (antibody, V domains shown)
VH: B1 VH
VL: B1 VL

These binders were tested against T1, YU2 gp140-foldon trimer (HIV-1 isolate YU2 (clade B) | ) (assay: SPR).

Work on B1 yielded a Kd of 7 nM.

The binders below were run against T1, YU2 gp140-foldon trimer (assay: BLI).

Compared with B2, B1 is 2.5-fold higher in Kd: 2 nM for the first, 5 nM for the second. The first binds more tightly here.

What follows are binders tested against YU2 gp120, soluble monomer (HIV-1 isolate YU2 (clade B), UniProt P35961 32-498) (assay: BLI).

B3 and B4 are within 1.5-fold of each other in Kd: 43 nM for the first, 56 nM for the second.

First: B5
Second: B6
The Kd of the first is 9.5-fold lower: 11 nM for the first, 104 nM for the second.

Going from B7 to B8, the Kd rises from 6 nM to 118 nM (20-fold). The first binds more tightly here.

Compared with B9, B10 is 2.6-fold higher in Kd: 24 nM for the first, 63 nM for the second.

B11 and B12 are within 1.5-fold of each other in Kd: 11 nM for the first, 13 nM for the second.
